# Experimental data taken from patent US20250115681A1 (WESTLAKE UNIVERSITY, published 2025).
# Where no end group is shown, it is not given here. [ ]: non-standard residue; d: D form. The star is where a group is joined. Biotin = O=C1N[C@H]2[C@H](CS[C@H]2CCCCC(=O)*)N1
# T1: AALPET*G peptide with N-terminal biotinylation
# T1 construct: Synthetic sortase substrate peptide
# T1 peptide: Biotin-AALPET[2‑hydroxyacetic acid]G
# Biological target: T1, AALPET*G peptide with N-terminal …
# Test: western blot of in vitro reaction product bands
binder,measurement,value
"mgSrtA (Ca2+-dependent) (enzyme, Engineered variant of wild-type sortase A, expressed in E. coli BL21 (DE3) with an N-terminal 6xHis tag; also called Ca^2+-dependent mgSrtA; not shown: N-terminal 6xHis tag from the pET-28a backbone) KPHIDNYLHDKDKDEKIEQYDKNVKEQASKDKKQQAKPQIPKDKSKVAGYIEIPDADIKEPVYPGPATREQLNRGVSFAEENESLDDQNISIAGHTFIGRPNYQFTNLKAAKKGSMVYFKVGNETRKYKMTSIRNVKPTAVGVLDEQKGKDKQLTLITCDDLNRETGVWETRKILVATEVK",binding result,binds
